Consider one substance from patent publication US20140072613A1, “Compositions and Methods for Treating Cutaneous Scarring” (priority 2012, published 2014).

Among the targets are CLK3(h) (human) (UniProt P49761); CaMKIIβ(h) (human) (UniProt Q13554); DAPK2(h) (human) (UniProt Q9UIK4); GSK3α(h) (human) (UniProt P49840); HIPK2(h) (human) (UniProt Q9H2X6); PDGFRα(V561D)(h) (human) (UniProt P16234); cKit(D816H)(h) (human) (UniProt P10721).
What all share (test): cell-based or functional assay
The target in the next experiment is T1, ARK5(h) (human) (UniProt O60285).
T1 sequence (looked up): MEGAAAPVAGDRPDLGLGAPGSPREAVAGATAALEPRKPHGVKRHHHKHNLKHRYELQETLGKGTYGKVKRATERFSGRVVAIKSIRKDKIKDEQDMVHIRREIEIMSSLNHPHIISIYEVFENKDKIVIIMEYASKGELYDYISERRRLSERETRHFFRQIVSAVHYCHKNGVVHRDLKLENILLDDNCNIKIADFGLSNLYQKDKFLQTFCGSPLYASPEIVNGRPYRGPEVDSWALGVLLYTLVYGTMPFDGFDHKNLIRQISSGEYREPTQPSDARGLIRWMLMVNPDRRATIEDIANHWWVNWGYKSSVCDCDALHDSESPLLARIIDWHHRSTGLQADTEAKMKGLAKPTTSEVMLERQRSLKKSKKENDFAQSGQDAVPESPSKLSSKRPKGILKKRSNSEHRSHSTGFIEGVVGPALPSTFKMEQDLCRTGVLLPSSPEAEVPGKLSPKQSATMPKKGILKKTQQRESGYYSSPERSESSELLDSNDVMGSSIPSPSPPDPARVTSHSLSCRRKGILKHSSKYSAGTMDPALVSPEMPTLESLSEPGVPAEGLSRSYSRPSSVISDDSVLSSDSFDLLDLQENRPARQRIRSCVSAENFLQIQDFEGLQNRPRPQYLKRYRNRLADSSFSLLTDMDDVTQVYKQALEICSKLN

The target in the next experiment is T2, Axl(h) (human) (UniProt P30530).
T2 sequence (looked up): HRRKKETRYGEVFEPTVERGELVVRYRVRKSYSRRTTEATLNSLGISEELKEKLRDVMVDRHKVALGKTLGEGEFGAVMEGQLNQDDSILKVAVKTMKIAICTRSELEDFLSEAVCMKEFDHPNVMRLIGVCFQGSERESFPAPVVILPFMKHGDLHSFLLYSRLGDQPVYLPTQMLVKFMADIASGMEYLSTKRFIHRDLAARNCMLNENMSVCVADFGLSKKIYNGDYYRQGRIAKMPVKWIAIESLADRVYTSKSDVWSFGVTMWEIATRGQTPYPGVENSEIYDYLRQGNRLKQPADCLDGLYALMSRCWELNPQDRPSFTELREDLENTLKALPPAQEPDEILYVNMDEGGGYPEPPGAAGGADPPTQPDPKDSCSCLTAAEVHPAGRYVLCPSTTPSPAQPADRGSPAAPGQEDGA

The next experiment deals with T3, NEK11(h) (human) (UniProt Q8NG66).
T3 sequence (looked up): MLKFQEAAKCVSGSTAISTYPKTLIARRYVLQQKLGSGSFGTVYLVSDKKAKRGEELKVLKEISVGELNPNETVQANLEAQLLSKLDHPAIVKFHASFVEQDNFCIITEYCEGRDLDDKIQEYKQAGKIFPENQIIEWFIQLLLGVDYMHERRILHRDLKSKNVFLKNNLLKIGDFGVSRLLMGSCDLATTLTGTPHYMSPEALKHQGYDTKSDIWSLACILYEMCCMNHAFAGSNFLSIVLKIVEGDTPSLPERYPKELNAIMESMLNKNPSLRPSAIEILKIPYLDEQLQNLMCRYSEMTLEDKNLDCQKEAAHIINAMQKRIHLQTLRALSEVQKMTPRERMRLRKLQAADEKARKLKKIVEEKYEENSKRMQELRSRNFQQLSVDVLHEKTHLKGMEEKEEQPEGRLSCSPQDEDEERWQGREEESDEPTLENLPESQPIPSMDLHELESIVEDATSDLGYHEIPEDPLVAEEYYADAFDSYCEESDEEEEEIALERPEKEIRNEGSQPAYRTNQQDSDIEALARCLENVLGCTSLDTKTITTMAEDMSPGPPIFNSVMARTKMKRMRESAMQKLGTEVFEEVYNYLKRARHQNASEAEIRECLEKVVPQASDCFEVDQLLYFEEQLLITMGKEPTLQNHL

The target in another experiment is T4, PKD2(h) (human) (UniProt Q9BZL6).
T4 sequence (looked up): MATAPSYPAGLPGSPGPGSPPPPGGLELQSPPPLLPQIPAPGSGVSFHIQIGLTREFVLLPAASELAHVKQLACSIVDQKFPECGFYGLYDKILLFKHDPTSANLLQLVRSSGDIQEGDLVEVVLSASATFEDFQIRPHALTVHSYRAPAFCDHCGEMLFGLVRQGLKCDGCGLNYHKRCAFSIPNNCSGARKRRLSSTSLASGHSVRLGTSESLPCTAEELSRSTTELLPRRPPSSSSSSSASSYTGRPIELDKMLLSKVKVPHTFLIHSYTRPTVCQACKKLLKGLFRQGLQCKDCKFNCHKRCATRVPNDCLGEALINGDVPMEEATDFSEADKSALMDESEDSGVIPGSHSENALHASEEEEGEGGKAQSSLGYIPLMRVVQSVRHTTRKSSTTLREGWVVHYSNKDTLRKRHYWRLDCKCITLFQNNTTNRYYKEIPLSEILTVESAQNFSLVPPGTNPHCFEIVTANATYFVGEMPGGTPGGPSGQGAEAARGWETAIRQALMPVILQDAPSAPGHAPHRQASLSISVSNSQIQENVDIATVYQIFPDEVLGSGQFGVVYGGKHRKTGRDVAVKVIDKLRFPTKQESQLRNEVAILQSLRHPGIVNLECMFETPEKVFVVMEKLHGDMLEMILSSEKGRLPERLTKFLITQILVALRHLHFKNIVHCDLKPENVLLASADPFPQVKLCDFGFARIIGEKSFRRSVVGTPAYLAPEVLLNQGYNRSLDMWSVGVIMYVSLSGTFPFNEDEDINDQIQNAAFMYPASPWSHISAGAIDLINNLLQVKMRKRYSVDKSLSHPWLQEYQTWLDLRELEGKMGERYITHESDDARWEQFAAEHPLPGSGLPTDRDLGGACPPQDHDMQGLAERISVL

Chain of CaMKIIβ(h) (human) (Q13554 whole entry): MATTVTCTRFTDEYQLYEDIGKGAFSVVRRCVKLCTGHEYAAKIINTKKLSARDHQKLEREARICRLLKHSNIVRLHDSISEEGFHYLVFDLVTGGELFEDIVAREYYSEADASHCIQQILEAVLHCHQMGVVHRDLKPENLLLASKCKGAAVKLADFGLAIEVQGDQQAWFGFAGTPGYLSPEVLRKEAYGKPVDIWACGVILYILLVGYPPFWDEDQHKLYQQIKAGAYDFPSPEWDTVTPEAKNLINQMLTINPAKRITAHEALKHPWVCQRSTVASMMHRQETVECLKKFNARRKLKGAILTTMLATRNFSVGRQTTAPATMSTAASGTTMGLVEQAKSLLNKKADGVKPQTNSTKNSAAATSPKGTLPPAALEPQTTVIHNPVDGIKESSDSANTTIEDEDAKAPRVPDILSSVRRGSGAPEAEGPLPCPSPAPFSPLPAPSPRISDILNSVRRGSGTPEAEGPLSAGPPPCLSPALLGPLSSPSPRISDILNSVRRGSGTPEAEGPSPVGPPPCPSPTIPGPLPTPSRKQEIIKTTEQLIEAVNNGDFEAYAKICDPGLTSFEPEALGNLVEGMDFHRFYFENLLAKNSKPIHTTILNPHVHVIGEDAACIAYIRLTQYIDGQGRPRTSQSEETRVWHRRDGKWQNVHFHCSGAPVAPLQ
Chain of CLK3(h) (human) (P49761 whole entry): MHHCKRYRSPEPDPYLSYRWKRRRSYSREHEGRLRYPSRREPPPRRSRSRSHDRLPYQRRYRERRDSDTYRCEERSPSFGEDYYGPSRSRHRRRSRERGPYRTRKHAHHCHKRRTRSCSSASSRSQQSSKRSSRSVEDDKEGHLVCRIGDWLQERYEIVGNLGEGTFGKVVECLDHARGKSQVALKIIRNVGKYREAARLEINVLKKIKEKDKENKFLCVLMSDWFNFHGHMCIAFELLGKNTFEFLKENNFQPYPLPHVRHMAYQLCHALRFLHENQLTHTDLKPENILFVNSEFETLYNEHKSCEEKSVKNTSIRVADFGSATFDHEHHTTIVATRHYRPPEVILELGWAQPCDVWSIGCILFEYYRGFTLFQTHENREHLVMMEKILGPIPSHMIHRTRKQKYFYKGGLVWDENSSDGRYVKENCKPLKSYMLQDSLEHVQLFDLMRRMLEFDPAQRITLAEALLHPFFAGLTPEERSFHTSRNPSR
Chain of cKit(D816H)(h) (human) (P10721 544-976 D816H): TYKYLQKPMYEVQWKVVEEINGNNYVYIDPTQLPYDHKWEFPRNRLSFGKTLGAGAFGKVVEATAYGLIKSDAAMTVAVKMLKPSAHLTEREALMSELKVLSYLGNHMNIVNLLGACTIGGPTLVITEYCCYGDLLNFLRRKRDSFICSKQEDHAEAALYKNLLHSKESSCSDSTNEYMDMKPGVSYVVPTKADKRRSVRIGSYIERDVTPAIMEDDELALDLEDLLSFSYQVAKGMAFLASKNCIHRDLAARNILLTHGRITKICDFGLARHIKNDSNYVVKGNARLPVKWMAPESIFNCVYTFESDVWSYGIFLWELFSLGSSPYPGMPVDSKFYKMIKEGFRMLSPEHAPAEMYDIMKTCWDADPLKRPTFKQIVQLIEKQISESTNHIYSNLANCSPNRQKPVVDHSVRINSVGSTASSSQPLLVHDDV
Chain of DAPK2(h) (human) (Q9UIK4 whole entry): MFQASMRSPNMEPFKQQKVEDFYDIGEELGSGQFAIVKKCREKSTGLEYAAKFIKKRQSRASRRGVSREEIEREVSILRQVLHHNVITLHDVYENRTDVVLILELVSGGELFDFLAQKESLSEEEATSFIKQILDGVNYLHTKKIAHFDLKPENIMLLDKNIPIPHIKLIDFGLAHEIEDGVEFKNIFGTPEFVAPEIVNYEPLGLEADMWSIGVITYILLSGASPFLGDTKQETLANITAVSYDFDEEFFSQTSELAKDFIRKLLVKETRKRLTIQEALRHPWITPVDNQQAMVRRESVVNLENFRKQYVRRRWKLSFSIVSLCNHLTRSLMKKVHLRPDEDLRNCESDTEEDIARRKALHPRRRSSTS
Chain of GSK3α(h) (human) (P49840 whole entry): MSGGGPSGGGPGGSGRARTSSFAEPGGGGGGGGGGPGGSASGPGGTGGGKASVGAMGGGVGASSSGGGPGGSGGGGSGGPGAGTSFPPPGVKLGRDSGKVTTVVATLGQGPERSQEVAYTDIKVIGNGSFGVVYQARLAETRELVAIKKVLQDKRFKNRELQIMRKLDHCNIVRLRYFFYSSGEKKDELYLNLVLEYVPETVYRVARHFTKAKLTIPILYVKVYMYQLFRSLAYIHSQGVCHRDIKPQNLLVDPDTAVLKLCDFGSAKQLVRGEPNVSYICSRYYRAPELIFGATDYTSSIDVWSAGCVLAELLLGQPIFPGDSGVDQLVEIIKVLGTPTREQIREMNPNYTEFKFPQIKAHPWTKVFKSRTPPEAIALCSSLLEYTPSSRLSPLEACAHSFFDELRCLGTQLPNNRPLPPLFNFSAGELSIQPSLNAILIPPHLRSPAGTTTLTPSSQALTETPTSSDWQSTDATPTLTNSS
Chain of PDGFRα(V561D)(h) (human) (P16234 550-1089 V561D limits assumed): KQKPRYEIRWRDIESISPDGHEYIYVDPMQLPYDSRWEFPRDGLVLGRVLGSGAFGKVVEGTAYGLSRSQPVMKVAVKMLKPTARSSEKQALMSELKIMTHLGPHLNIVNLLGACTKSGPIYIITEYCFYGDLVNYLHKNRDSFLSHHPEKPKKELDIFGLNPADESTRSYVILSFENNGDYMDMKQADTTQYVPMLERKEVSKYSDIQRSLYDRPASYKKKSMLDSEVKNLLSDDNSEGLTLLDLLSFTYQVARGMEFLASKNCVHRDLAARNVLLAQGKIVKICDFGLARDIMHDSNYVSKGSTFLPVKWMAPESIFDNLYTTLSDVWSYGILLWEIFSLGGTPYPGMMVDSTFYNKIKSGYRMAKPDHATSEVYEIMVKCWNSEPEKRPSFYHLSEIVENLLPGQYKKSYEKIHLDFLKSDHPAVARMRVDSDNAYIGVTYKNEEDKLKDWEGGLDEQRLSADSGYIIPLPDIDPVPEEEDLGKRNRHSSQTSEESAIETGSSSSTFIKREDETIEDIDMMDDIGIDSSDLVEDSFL
Chain of HIPK2(h) (human) (Q9H2X6 165-564 limits assumed): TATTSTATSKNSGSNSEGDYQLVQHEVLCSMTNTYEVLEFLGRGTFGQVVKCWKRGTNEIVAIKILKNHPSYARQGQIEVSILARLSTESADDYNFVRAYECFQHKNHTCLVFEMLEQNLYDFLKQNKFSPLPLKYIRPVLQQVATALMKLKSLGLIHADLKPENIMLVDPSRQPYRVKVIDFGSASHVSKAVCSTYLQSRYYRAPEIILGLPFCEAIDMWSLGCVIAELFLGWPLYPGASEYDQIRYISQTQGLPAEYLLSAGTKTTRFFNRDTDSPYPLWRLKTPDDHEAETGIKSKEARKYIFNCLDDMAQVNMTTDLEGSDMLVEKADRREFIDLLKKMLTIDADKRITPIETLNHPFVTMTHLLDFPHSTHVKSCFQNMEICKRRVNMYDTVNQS

With MMI-0500 (peptide), the % activity, 100 µM in the experiment with ARK5(h) (human) came out at 20%; with Axl(h) (human) it was 12%; with CLK3(h) (human) it was 76%; in the experiment with CaMKIIβ(h) (human) it was 3%; in the experiment with DAPK2(h) (human), 3%; with GSK3α(h) (human) it was 175%. In addition, the % activity, 100 µM with HIPK2(h) (human) was determined as 38%; in the experiment with NEK11(h) (human), 2%; with PDGFRα(V561D)(h) (human) it was 146%; with PKD2(h) (human) it was 10%; with cKit(D816H)(h) (human) it was 194%.
